Legend:
[1] = target: T1, recombinant purified mouse IL-12 (Peprotech) (mouse, UniProt P43432 23-335; P43431 23-215); assay: indirect ELISA, mAb captured on anti-mouse IgG Fc, mouse IL-12 at 0.2 ug/ml
T1 construct: Bought reagent; also called mu IL-12; murine IL-12
T1 sequence (looked up) 1: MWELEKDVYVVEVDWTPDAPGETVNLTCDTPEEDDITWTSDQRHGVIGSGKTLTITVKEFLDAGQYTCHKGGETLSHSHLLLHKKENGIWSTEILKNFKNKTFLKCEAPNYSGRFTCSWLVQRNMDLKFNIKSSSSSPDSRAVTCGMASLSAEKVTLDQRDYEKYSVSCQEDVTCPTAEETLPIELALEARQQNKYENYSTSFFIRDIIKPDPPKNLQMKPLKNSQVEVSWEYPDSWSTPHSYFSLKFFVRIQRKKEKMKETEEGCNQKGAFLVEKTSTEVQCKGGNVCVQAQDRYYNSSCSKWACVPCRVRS
T1 sequence (looked up) 2: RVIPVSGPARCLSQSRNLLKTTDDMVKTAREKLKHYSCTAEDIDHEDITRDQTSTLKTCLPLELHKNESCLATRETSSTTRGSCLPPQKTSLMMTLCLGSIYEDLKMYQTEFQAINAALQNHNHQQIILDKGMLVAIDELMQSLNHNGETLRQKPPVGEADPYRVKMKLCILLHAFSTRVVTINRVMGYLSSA
Description: Second, an indirect ELISA was set up by coating ELISA plates with 5 ug/ml of goat anti-mouse IgG, Fc fragment specific antibody (Pierce #31170, Rockland, Ill.). Murine anti-human IL-12 p40 mAbs were prepared at various concentrations ranging from 0.1 to 100 ng/ml in PBS containing 0.1% BSA; 50 ul of each antibody dilution was added to the coated ELISA plate and incubated for 1 hour at room temperature. Wells were washed 3 times with PBS containing 0.05% Tween-20. Recombinant purified mouse IL-12 (Preprotech) was diluted at 0.2 ug/ml in PBS containing 0.1% BSA; 50 ul/well was added and the plates incubated for 1 hour at room temperature. Wells were washed 3 times with PBS containing 0.05% Tween-20. Biotinylated anti-mouse IL-12 antibody (R&D # BAF419) was diluted at 0.2 ug/ml in PBS containing 0.1% BSA; 50 ul/well was added and the plates incubated for 1 hour at room temperature. Wells were washed 3 times with PBS containing 0.05% Tween-20. Streptavidin HRP (Pierce #21126, Rockland, Ill.) was diluted 1:20000 in PBS containing 0.1% BSA; 50 μL/well was added and the plates incubated for 1 hour at room temperature. Plates were washed 3 times with PBS containing 0.05% Tween-20. Fifty microliters of TMB solution was added to each well and incubated for 10 minutes at room temperature. […] Plates were read spectrophotmetrically at a wavelength of 450 nm.

[2] = target: T2, recombinant purified human IL-12 p70 (human, UniProt P29459 23-219); assay: competition ELISA on coated human IL-12, competitor of 0.8 µg/ml biotinylated 8E1, Expt. 2
T2 construct: Disulfide-linked heterodimer of p35 and p40; also called hIL-12; Hu IL-12
T2 sequence 1: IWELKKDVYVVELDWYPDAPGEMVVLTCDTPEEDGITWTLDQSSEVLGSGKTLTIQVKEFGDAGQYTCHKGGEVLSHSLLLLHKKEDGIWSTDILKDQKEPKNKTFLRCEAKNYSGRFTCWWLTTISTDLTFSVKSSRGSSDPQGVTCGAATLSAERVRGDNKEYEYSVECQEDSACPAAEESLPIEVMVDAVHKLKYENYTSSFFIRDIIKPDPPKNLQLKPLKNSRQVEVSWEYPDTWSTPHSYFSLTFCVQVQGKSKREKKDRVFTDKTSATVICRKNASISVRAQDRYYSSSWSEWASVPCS
T2 sequence 2: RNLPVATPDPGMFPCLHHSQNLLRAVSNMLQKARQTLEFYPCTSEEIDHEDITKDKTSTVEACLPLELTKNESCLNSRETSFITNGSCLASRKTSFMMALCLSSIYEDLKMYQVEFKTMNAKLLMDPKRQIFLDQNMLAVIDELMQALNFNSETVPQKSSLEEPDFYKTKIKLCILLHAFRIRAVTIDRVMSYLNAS
Description: MaxiSorp ELISA plates (Nalge Nunc International) were coated overnight at 4° C. with 100 μl/well of 1.0 μg/ml human IL-12 in 0.2 M sodium carbonate-bicarbonate buffer, pH 9.4, washed with Wash Buffer (PBS containing 0.1% Tween 20), and blocked for 1 hr at room temperature with 300 μl/well of SuperBlock Blocking Buffer in TBS (Pierce Chemical Company). After washing with Wash Buffer, a mixture of biotinylated 8E 1 ([…] final concentration) and competitor antibody (8E1 or 8E1.4 or 8E1.5 or 8E1.6) starting at 100 μg/ml final concentration and serially diluted 3-fold) in 100 μl/well of ELISA buffer was added in duplicate. As isotype controls, 100 μl/well of 100 μg/ml mouse IgG 1/κ (MuFd79) or humanized IgG1/κ (HuFd79) monoclonal antibodies in ELISA buffer was used. As a no-competitor control, 100 μl/well of ELISA Buffer was used. After incubating the plates for 1 hr at room temperature, and washing with Wash Buffer, bound antibodies were detected using 100 μl/well of 1 μg/ml HRP-conjugated streptavidin (Pierce Chemical Company) in ELISA buffer. After incubating for 1 hr at room temperature, and washing with Wash Buffer, color development was performed by adding 100 μl/well of ABTS Peroxidase Substrate/Peroxidase Solution B (KPL, Inc.). […] Absorbance was read at 415 nm.
The affinity of 8E1.4, 8E1.5 and 8E1.6 to human IL-12 was analyzed by competition ELISA as described above.

IC50 [2]: 2.78 mg/L
B1: murine anti-human IL-12p40 monoclonal antibody 8E1 (antibody, V domains shown)
VH: EVKLVESGGGLVQPGGSRKLSCAASGFTFSDYGMVWVRQAPGKGLEWVASISSGSSNIYYADTVKGRFTISRDDPNNTLFLQMRSLRSEDTAMYYCARNPYWGQGTTLTVSS
VL: DIVMTQSQKFMSTSVGDRVSVTCKASQNVGTNVAWYQQKPGQSPKGLIYSASHRYSGVPDRFAGSGSGTDFTLTISNVQSEDLAEYFCQQYNSYPLTFGGGTKLELKR
notes: Murine mAb; also called biotinylated 8E1
binding result [1]: no binding (tested: 0.1 to 100 ng/ml mAb)

Reference: patent US20140178332A1 (published 2014)
